{"source": "patent US20230025707A1", "about": "(University of Pennsylvania, published 2023)", "binders": {"B1": {"name": "9060 (antibody, IgG1, V domains shown)", "VH": "EVHLVESGGGLVQPKGSLKLSCAASGFTFNTYAMHWVRQAPGKGLEWVARIRNKSNNYATYYADSVKDRFTISRDDSQSMLFLQMDNLKTEDTAIYYCVRGGLSPFDYWGQGTTLTVSS", "VL": "QIVLTQSPAIMSASPGEKVTMTCSASSSVTYMHWYQQKSGTSPKRWIYDTSKLASGVPARFSGSGSGTSYSLTISSMEAEDAATYYCQQWSSNPPTFGGGTKLEIR"}, "B2": {"name": "9110 (antibody, IgG1, V domains shown)", "VH": "B1 VH", "VL": "B1 VL"}, "B3": {"name": "9071 (antibody, IgG1, V domains shown)", "VH": "B1 VH", "VL": "B1 VL"}, "B4": {"name": "9064 (antibody, IgG1, V domains shown)", "VH": "B1 VH", "VL": "B1 VL"}, "B5": {"name": "9003 (antibody, IgG1, V domains shown)", "VH": "B1 VH with H3Q, N53S, K54E, Y58F, R69S, F82Y, D86N, I95V", "VL": "B1 VL with T30S, S75N, S92R, R106K"}, "B6": {"name": "9014 (antibody, IgG1, V domains shown)", "VH": "B1 VH with H3Q, N53S, K54E, Y58F, R69S, F82Y, D86N, I95V", "VL": "B1 VL with T30S, S75N, S92R, R106K"}, "B7": {"name": "9004 (antibody, IgG2b, V domains shown)", "VH": "B1 VH with N53S, F82Y, D86N, I95M", "VL": "B1 VL"}, "B8": {"name": "9009 (antibody, IgG1, V domains shown)", "VH": "B1 VH with H3Q, N53S, K54E, Y58F, R69S, F82Y, D86N, I95V", "VL": "B1 VL with T30S, S75N, S92R, R106K"}, "B9": {"name": "9047 (antibody, IgG2b, V domains shown)", "VH": "EVQLVESGGGLVKPGGSLKLSCGASGFTFSSFAMSWVRQTPEKRLEWVATISNGGSYTYYPDSVKGRFTISRDNAKNTLYLRMSSLRSEDTALYYCTRRSSTRGFFDYWGPGTTLTVSS", "VL": "QIFLTQSPAIMSASPGEKVTMTCSASSSVTYMYWYQQNPGSSPRLLIYDSSKLASGVPVRFSGSGSGTSYSLTISRMEAEDATTYYCQQWKSYPPTFGTGTKLDLK"}, "B10": {"name": "9092 (antibody, IgG1, V domains shown)", "VH": "QVQLQQSGPELVKPGASVRISCKASGYTFTTFYLHWVKQRPGQGLEWIGWIYPVNVKIKYSERFKGKATLTADKSSSTAYMQLGSLTSEDSAVYFCVRGGRGLDYWGQGTTLTVSS", "VL": "NIMMTQSPSSLAVSAGEKVTMSCKSSQSVLYSSNQKNYLAWYQQKPGQSPKMLIYWASFRESGVPDRFTGSGSGTDFTLTISSVQAEDLAVYYCHQYLSLFTFGSGTKLEIK"}, "B11": {"name": "9005 (antibody, IgG1, V domains shown)", "VH": "EVMLVESGGGLVKSGGSLKLSCAASGFTFSSYAMSWVRQTPEKRLEWVATISTGGGYTYYPDSVKGRFTISRDNAKNTLYLQMSSLRSEDTAMYYCVRRGTARGYFDVWGAGTTVTVSS", "VL": "QIVLTQSPAIMSASPGEKVTMTCSASSSVSYMYWYQQKPESSPRLLIYDTSNLASGVPVRFSGSGSGTSYFLTISRMEAEDAATYYCQQWKTYPPTFGGGTKLEIK"}, "B12": {"name": "9099 (antibody, IgG2b, V domains shown)", "VH": "B9 VH with G10V, G23A, L93M, T97V, S100A, S101T, F105Y, P111Q", "VL": "B9 VL with T30S, N38K, R60Q, T83A, K91R, T99A, D104E"}, "B13": {"name": "9052 (antibody, IgG2b, V domains shown)", "VH": "B9 VH with G10V, G23A, L93M, T97V, S100A, S101T, F105Y, P111Q", "VL": "B9 VL with T30S, N38K, R60Q, T83A, K91R, T99A, D104E"}, "B14": {"name": "9100 (antibody, IgG2b, V domains shown)", "VH": "B9 VH with G10V, G23A, L93M, T97V, S100A, S101T, F105Y, P111Q", "VL": "B9 VL with T30S, N38K, R60Q, T83A, K91R, T99A, D104E"}, "B15": {"name": "9021 (antibody, IgG1, V domains shown)", "VH": "B11 VH with L4M, S14P, S31N, V64M, V97A", "VL": "B11 VL"}, "B16": {"name": "9096 (antibody, IgG2b, V domains shown)", "VH": "B9 VH with G23A, S31G, F32Y, N77K, R82Q, L93M, S100A, S101A, F105Y, P111Q", "VL": "B11 VL with E40G, N52K, F71S, K91R, T92S, G99A, I105L"}, "B17": {"name": "9035 (antibody, IgG2b, V domains shown)", "VH": "B9 VH with K65Q, L93M, T97A, P111H", "VL": "B9 VL with T30S, N38K, R60Q, T83A, K91R, T99A, D104E"}, "B18": {"name": "9018 (antibody, IgG2b, V domains shown)", "VH": "B11 VH with S14P, I70V, V97A, A102S", "VL": "B11 VL with V3I, K102R"}}, "note": "Numbering of substitutions follows the chain as printed."}
{"molecular_target": "T1, human α-Synuclein pre-formed fibrils (human, UniProt P37840 1-140)", "assay": "sandwich ELISA; PFF vs monomer from EC50s, Syn211 as control", "procedure": "Fibrils were then sonicated on high for 10 cycles of 30 seconds on, 30 seconds off (Diagenode Biorupter UCD-300 bath sonicator) prior to dilutions. Dilutions were added to each well (30 μL per well) and incubated overnight at 4° C. The plate was washed 4 times with PBST. 30 μL of MJF-R1 (1:3,000, Abcam Cat #ab138501) in Buffer C was added to each well and the plate was incubated for 4 hours at 37° C. After washing with PBST 4 times, 1:10 k diluted goat-anti-rabbit IgG-HRP conjugate (Cell Signaling Technology) was added to the plate and the plate was incubated for 1 hour at 37° C.\nThis assay retains the conformation of α-Synuclein by allowing binding of α-Synuclein that is in solution to immobilized antibody, and allows a broad range of affinity detection. Antibodies of interest were coated on an ELISA plate and either α-Synuclein monomer or PFF were incubated with the antibodies at increasing α-Synuclein concentrations to determine relative affinity of the antibodies for each form of α-Synuclein.\nBy fitting the absorbance values with a sigmoid dose curve, EC₅₀ values were calculated for each antibody."}
{"binder": "B1", "PFF Preference": 0.73}
{"binder": "B2", "PFF Preference": 0.533}
{"binder": "B3", "PFF Preference": 0.605}
{"binder": "B4", "PFF Preference": 0.855}
{"binder": "B5", "PFF Preference": 0.565}
{"binder": "B6", "PFF Preference": 0.478}
{"binder": "B7", "PFF Preference": 1.02}
{"binder": "B8", "PFF Preference": 0.507}
{"binder": "B9", "PFF Preference": 133}
{"binder": "B10", "PFF Preference": 93.8}
{"binder": "B11", "PFF Preference": 1.31}
{"binder": "B12", "PFF Preference": 5.26}
{"binder": "B13", "PFF Preference": 1.47}
{"binder": "B14", "PFF Preference": 2.73}
{"binder": "B15", "PFF Preference": 1}
{"binder": "B16", "PFF Preference": 1.01}
{"binder": "B17", "PFF Preference": "2.11e+08"}
{"binder": "B18", "PFF Preference": 1.45}
{"molecular_target": "Lewy body α-Synuclein (human, UniProt P37840 1-140)", "assay": "IHC, human amygdala; OD of Lewy bodies / OD of tissue", "source_text": "FIG. 2A: Sections of amygdala tissue containing abundant Lewy body pathology were stained using undiluted or 1:3 diluted hybridoma supernatant. […] FIG. 2B: The optical density within Lewy bodies divided by the optical density of a 1 mm² tissue section containing those Lewy bodies was defined as the Lewy Body Discrimination Index. Antibodies preferentially recognizing Lewy bodies score high on this measure.\nIn order to rapidly screen for antibody selectivity to pathological α-Synuclein, amygdala sections from PD patients with abundant LB pathology were immunostained. Hybridoma supernatants were used undiluted or at a 1:3 dilution on screening slides processed in parallel to allow direct comparison of immunostaining. […] A value of 1 indicates no discrimination of LBs over normal synaptic neuropil staining."}
{"binder": "B1", "LB Discrimination Index": 1.92}
{"binder": "B2", "LB Discrimination Index": 1.73}
{"binder": "B3", "LB Discrimination Index": 1.89}
{"binder": "B4", "LB Discrimination Index": 1.95}
{"binder": "B5", "LB Discrimination Index": 1.94}
{"binder": "B6", "LB Discrimination Index": 1.87}
{"binder": "B7", "LB Discrimination Index": 1.91}
{"binder": "B8", "LB Discrimination Index": 1.82}
{"binder": "B9", "LB Discrimination Index": 2.46}
{"binder": "B10", "LB Discrimination Index": 1.9}
{"binder": "B11", "LB Discrimination Index": 1.68}
{"binder": "B12", "LB Discrimination Index": 1.47}
{"binder": "B13", "LB Discrimination Index": 1.74}
{"binder": "B14", "LB Discrimination Index": 1.62}
{"binder": "B15", "LB Discrimination Index": 1.81}
{"binder": "B16", "LB Discrimination Index": 1.3}
{"binder": "B17", "LB Discrimination Index": 1.9}
{"binder": "B18", "LB Discrimination Index": 1.78}
{"molecular_target": "T1, human α-Synuclein pre-formed fibrils", "assay": "cell-based or functional assay", "units": {"% Inhibition (primary neuron assay)": "%"}}
{"binder": "B1", "% Inhibition (primary neuron assay)": 83.8}
{"binder": "B2", "% Inhibition (primary neuron assay)": 81.6}
{"binder": "B3", "% Inhibition (primary neuron assay)": 79.3}
{"binder": "B4", "% Inhibition (primary neuron assay)": 88.1}
{"binder": "B5", "% Inhibition (primary neuron assay)": 82}
{"binder": "B6", "% Inhibition (primary neuron assay)": 81.7}
{"binder": "B7", "% Inhibition (primary neuron assay)": 62.7}
{"binder": "B8", "% Inhibition (primary neuron assay)": 81}
{"binder": "B9", "% Inhibition (primary neuron assay)": 84.3}
{"binder": "B10", "% Inhibition (primary neuron assay)": -27.9}
{"binder": "B11", "% Inhibition (primary neuron assay)": 90.3}
{"binder": "B12", "% Inhibition (primary neuron assay)": 85.3}
{"binder": "B13", "% Inhibition (primary neuron assay)": 84.3}
{"binder": "B14", "% Inhibition (primary neuron assay)": 91.3}
{"binder": "B15", "% Inhibition (primary neuron assay)": 84.7}
{"binder": "B16", "% Inhibition (primary neuron assay)": 85.1}
{"binder": "B17", "% Inhibition (primary neuron assay)": 79}
{"binder": "B18", "% Inhibition (primary neuron assay)": 86.5}
